Reference: IntAct's records for PubMed 30559186

target: bi1_human TMBIM6 (UniProt P55061)
Sequence (P55061 whole entry): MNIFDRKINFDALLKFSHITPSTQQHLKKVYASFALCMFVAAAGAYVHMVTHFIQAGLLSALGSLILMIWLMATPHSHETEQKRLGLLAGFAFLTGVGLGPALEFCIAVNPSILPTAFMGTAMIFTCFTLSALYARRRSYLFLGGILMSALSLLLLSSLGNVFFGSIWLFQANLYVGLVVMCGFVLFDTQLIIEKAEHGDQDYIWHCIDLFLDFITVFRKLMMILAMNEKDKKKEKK

Effect of a mutation on the interaction, with no effect:
Presenilin-1 (Homo sapiens) (from UniProt P49768) L381V, Presenilin-1 (Homo sapiens) (from UniProt P49768) I439V, Presenilin-1 (Homo sapiens) (from UniProt P49768) S169P, Presenilin-1 (Homo sapiens) (from UniProt P49768) M233L, Presenilin-1 (Homo sapiens) (from UniProt P49768) P284S, Presenilin-1 (Homo sapiens) (from UniProt P49768) I143V, Presenilin-1 (Homo sapiens) (from UniProt P49768) V272A
